Test results as given in publication PMC7199863 (The Journal of Cell Biology, 2020).

Molecular target: T1, FLAG-tagged fragment of CC-afadin (coiled-coil region of afadin, aa 1386-1595) (mouse)
T1 chain: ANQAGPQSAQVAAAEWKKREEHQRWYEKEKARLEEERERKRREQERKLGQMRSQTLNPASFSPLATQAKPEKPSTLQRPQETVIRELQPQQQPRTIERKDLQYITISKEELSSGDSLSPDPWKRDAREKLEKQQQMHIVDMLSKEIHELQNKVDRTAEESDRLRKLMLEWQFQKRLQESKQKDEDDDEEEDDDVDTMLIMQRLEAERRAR
Assay: sucrose density gradient centrifugation

stoichiometry N: 1
B1: αE-catenin fragment MIII-C (aa 509-906) (domain or fragment)
chain: DDFLAVSENHILEDVNKCVIALQEKDVDGLDRTAGAIRGRAARVIHVVTSEMDNYEPGVYTEKVLEATKLLSNTVMPRFTEQVEAAVEALSSDPAQPMDENEFIDASRLVYDGIRDIRKAVLMIRTPEELDDSDFETEDFDVRSRTSVQTEDDQLIAGQSARAIMAQLPQEQKAKIAEQVASFQEEKSKLDAEVSKWDDSGNDIIVLAKQMCMIMMEMTDFTRGKGPLKNTSDVISAAKKIAEAGSRMDKLGRTIADHCPDSACKQDLLAYLQRIALYCHQLNICSKVKAEVQNLGGELVVSGVDSAMSLIQAAKNLMNAVVQTVKASYVASTKYQKSQGMASLNLPAVSWKMKAPEKKPLVKREKQDETQTKIKRASQKKHVNPVQALSEFKAMDSI
